This test deals with murine LY6C polypeptide on YAMC cells (murine) (UniProt P0CW02). Nature of the test: cell-based or functional assay.

The text below walks through data of patent US20110177504A1.

UniProt P0CW02, sequence (P0CW02 27-109 limits assumed): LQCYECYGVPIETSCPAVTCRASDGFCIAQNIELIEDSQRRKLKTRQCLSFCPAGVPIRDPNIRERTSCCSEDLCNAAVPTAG

Consider “Anti-LY6C (clone HK1.4), Southern Biotech (antibody)”, for which the CCL2 mRNA, quantitative RT-PCR, YAMC cells on plate-bound antibody 24 h, IFN pre-treatment came out at 16.1 fold change; the CCL2 mRNA, quantitative RT-PCR, YAMC cells on plate-bound antibody 24 h, Media pre-treatment is 8.81 fold change; the CCL4 mRNA, quantitative RT-PCR, YAMC cells on plate-bound antibody 24 h, IFN pre-treatment was 16.1 fold change; the CCL4 mRNA, quantitative RT-PCR, YAMC cells on plate-bound antibody 24 h, Media pre-treatment turned out to be 3.15 fold change. For the same substance, the CCL5 mRNA, quantitative RT-PCR, YAMC cells on plate-bound antibody 24 h, IFN pre-treatment was 10.1 fold change; the CCL5 mRNA, quantitative RT-PCR, YAMC cells on plate-bound antibody 24 h, Media pre-treatment stood at 3.31 fold change; the CCL7 mRNA, quantitative RT-PCR, YAMC cells on plate-bound antibody 24 h, IFN pre-treatment is 5.81 fold change; the CCL7 mRNA, quantitative RT-PCR, YAMC cells on plate-bound antibody 24 h, Media pre-treatment amounted to 3.37 fold change. The CCL8 mRNA, quantitative RT-PCR, YAMC cells on plate-bound antibody 24 h, IFN pre-treatment worked out at 110 fold change; the CCL8 mRNA, quantitative RT-PCR, YAMC cells on plate-bound antibody 24 h, Media pre-treatment turned out to be 12.8 fold change; the CCL25 mRNA, quantitative RT-PCR, YAMC cells on plate-bound antibody 24 h, IFN pre-treatment was determined as 1.46 fold change; the CCL25 mRNA, quantitative RT-PCR, YAMC cells on plate-bound antibody 24 h, Media pre-treatment came out at 1.16 fold change. Besides, the CXCL1 mRNA, quantitative RT-PCR, YAMC cells on plate-bound antibody 24 h, IFN pre-treatment amounted to 13.4 fold change; the CXCL1 mRNA, quantitative RT-PCR, YAMC cells on plate-bound antibody 24 h, Media pre-treatment came out at 11.6 fold change; the CXCL2 mRNA, quantitative RT-PCR, YAMC cells on plate-bound antibody 24 h, IFN pre-treatment was 113 fold change; the CXCL2 mRNA, quantitative RT-PCR, YAMC cells on plate-bound antibody 24 h, Media pre-treatment was 21.8 fold change. Besides, the CXCL5 mRNA, quantitative RT-PCR, YAMC cells on plate-bound antibody 24 h, IFN pre-treatment amounted to 151 fold change; the CXCL5 mRNA, quantitative RT-PCR, YAMC cells on plate-bound antibody 24 h, Media pre-treatment was 118 fold change; the CXCL10 mRNA, quantitative RT-PCR, YAMC cells on plate-bound antibody 24 h, IFN pre-treatment stood at 12.2 fold change; the CXCL10 mRNA, quantitative RT-PCR, YAMC cells on plate-bound antibody 24 h, Media pre-treatment is 5.11 fold change. Besides, the CXCL12 mRNA, quantitative RT-PCR, YAMC cells on plate-bound antibody 24 h, IFN pre-treatment was -3.02 fold change; the CXCL12 mRNA, quantitative RT-PCR, YAMC cells on plate-bound antibody 24 h, Media pre-treatment is -1.99 fold change; the lowest coating concentration of antibody giving detectable CXCL5 secretion, ELISA was 1 µg/mL.
